# Results as given in the supplement of paper PMC9732359.
# ± gives the uncertainty stated by the source.
# Assay: protein stability index of a GFP-peptide fusion (yeast GPS) (PSI 1-4); higher = more stable; sorted into four equal gates, so the index is relative within each strain
# Outline: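 The protein stability index combines read frequencies across sorting gates, each weighted by its gate number and then summed. To obtain those frequencies, a pooled yeast library of GFP fusions to tiled 17-residue yeast protein peptides, on a plasmid also expressing Cherry, was grown to mid-log phase in leucine-free medium. The cells were sorted into four equal gates by GFP/Cherry ratio before plasmid amplification by PCR and Illumina sequencing.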
Sequence,protein stability index (doa10∆),protein stability index (pdr5∆),protein stability index (san1∆),protein stability index (ubr1∆)
QRKTNGASNGDDSNGGN [BRN1],3.12 ± 0.14,2.92 ± 0.23,3.71 ± 0.17,3.64 ± 0.15
TNFEILNEMLNTRKNMS [DIS3],2.97 ± 0.059,3.07 ± 0.091,3.06 ± 0.054,3.09 ± 0.041
KVVKAIRIYFTEKDDNK [NUT1],2.31 ± 0.13,2.67 ± 0.07,2.55 ± 0.12,2.97 ± 0.056
EDFLDKSYYLNTVMLQG [AAR2],2.02 ± 0.067,2.24 ± 0.097,2.24 ± 0.15,1.22 ± 0.052
KIQFHIHFADVAHITTK [RGR1],2.88 ± 0.092,2.95 ± 0.087,2.83 ± 0.07,2.83 ± 0.058
LHKLQRMRLRALETENM [GRR1],1.46 ± 0.046,1.92 ± 0.059,1.47 ± 0.077,1.38 ± 0.032
PLQNIHVRKVKLLKQPK [RPS1A],2.69 ± 0.075,2.82 ± 0.074,2.71 ± 0.051,2.53 ± 0.065
EMMKMMQDPQMQQMAKQ [SRP54],3.07 ± 0.057,2.76 ± 0.067,2.77 ± 0.039,2.67 ± 0.038
INQIFSPEEQRSLLQEA [GAL11],2.95 ± 0.12,3.07 ± 0.063,3.53 ± 0.11,3.03 ± 0.1
FGFSSSGTAATGAASNQ [YOR098C/NUP1],2.69 ± 0.11,3.41 ± 0.13,,3.31 ± 0.07
GISEVQARKSKSVSFYA [RPT5],3.4 ± 0.064,3.39 ± 0.093,3.37 ± 0.056,3.31 ± 0.063
KPAFSFGINTNTTKTAD [YLR335W/NUP2],2.98 ± 0.098,3.09 ± 0.1,3.11 ± 0.063,3.46 ± 0.064
AGNTTTGGGLFGSKPTG [YGL172W/NUP49],2.4 ± 0.084,2.18 ± 0.17,2.64 ± 0.11,2.21 ± 0.097
GTCNGDITTSIMDNFLE [RPN1],2.77 ± 0.054,2.85 ± 0.057,2.86 ± 0.056,2.82 ± 0.068
KYPARRIHTNDNDIMNL [SSN3],2.83 ± 0.074,3.06 ± 0.072,2.98 ± 0.077,2.9 ± 0.059
LQSIVNEISRNGTMINE [PCI8],2.93 ± 0.12,2.64 ± 0.13,2.67 ± 0.13,2.9 ± 0.12
VRDVAAQDFINAYASFL [RPS19A],2.85 ± 0.078,2.5 ± 0.092,2.96 ± 0.22,2.21 ± 0.088
VEGHLFEIIDEASKKSA [FAS1],3.26 ± 0.17,3.5 ± 0.15,3.22 ± 0.06,3.33 ± 0.073
PGTIVLYAERVQDRGLS [RPS3],2.87 ± 0.06,2.99 ± 0.056,2.62 ± 0.085,3.17 ± 0.041
LDCDGGFIDASCIAVMA [RRP45],1.87 ± 0.047,1.56 ± 0.049,2.67 ± 0.071,1.56 ± 0.04

Sequence,protein stability index (doa10∆),protein stability index (pdr5∆),protein stability index (san1∆),protein stability index (ubr1∆)
AERTMSKKETKLQENRT [SMC2],2.84 ± 0.25,3.17 ± 0.19,3.31 ± 0.15,3.04 ± 0.13
AHMANPLLRKVVDRESD [PRE4],,,1.13 ± 0.22,
TGEFDFEAAVKMSDGFN [RPT4],2.91 ± 0.15,3.33 ± 0.14,2.57 ± 0.18,3.31 ± 0.16
RAQLENEIEGKNEETPQ [RPC25],,3.23 ± 0.14,2.47 ± 0.2,3.38 ± 0.078
HDADLEVSMNSIFAMGL [RPN1],1.85 ± 0.038,2.69 ± 0.045,2.65 ± 0.047,2.4 ± 0.034
ENTKDNLVKEKEALQNN [SMC1],3.51 ± 0.12,3.26 ± 0.13,3.45 ± 0.13,
AAQDVWNRADNHFKDTY [FAS1],3.05 ± 0.18,3.14 ± 0.1,3.19 ± 0.11,3.53 ± 0.13
SLLPYYHLTKAVKLGDL [RPN3],2.21 ± 0.052,1.74 ± 0.052,1.72 ± 0.073,1.78 ± 0.066
QQLLPAPQLFPYGSFHQ [DSN1],2.72 ± 0.09,3.01 ± 0.1,2.72 ± 0.072,3.04 ± 0.08
NPYNIVPQGKIVALTNA [SMC3],2.77 ± 0.14,2.78 ± 0.086,2.82 ± 0.12,3.11 ± 0.078
VIVTDPRSDAQAIKEAS [RPS0A],2.88 ± 0.089,2.96 ± 0.08,2.92 ± 0.068,2.91 ± 0.061
NVHGSLEPFLLMLEDTD [BRR2],2.47 ± 0.077,2.63 ± 0.088,2.87 ± 0.11,2.94 ± 0.059
LKSASKETAPVIDTLAA [RPL28],2.07 ± 0.072,2.41 ± 0.11,2.68 ± 0.073,2.12 ± 0.087
IVDDKQEMIDILETIFR [DIB1],2.98 ± 0.1,3.17 ± 0.13,3.02 ± 0.22,2.75 ± 0.18
NHVMPLKPVDKLKPMNI [SIN4],2.84 ± 0.1,2.93 ± 0.083,2.83 ± 0.087,2.94 ± 0.094
HANAAAVYFADTSGLKI [SIN4],2.37 ± 0.067,2.56 ± 0.065,2.23 ± 0.073,2.49 ± 0.053
NAEKTGKRQVLIRPSSK [RPS22A],3.28 ± 0.16,3.26 ± 0.12,3.13 ± 0.14,3.03 ± 0.075
KQKSWVPSYIHVEKERA [YIL149C/MLP2],1.79 ± 0.058,2.25 ± 0.048,2.12 ± 0.082,2 ± 0.046
AMHNSKAASSTRIFQAL [POP1],2.59 ± 0.093,2.54 ± 0.078,2.87 ± 0.14,2.89 ± 0.11
QFSYLSSTLGIDLEDIK [PCI8],2.36 ± 0.064,2.23 ± 0.076,1.71 ± 0.12,2.01 ± 0.07
